Values of other authors in patent publication US20210137911A1, “NOVEL CHRONOTHERAPY BASED ON CIRCADIAN RHYTHMS” (THE TRUSTEES OF THE UNIVERSITY OF PENNSYLVANIA, priority 2014, published 2021).

B1: Idursulfase (protein, UniProt P22304 34-455; P22304 456-550, looked up)
Iduronate 2-sulfatase 42 kDa …: TDALNVLLIIVDDLRPSLGCYGDKLVRSPNIDQLASHSLLFQNAFAQQAVCAPSRVSFLTGRRPDTTRLYDFNSYWRVHAGNFSTIPQYFKENGYVTMSVGKVFHPGISSNHTDDSPYSWSFPPYHPSSEKYENTKTCRGPDGELHANLLCPVDVLDVPEGTLPDKQSTEQAIQLLEKMKTSASPFFLAVGYHKPHIPFRYPKEFQKLYPLENITLAPDPEVPDGLPPVAYNPWMDIRQREDVQALNISVPYGPIPVDFQRKIRQSYFASVSYLDTQVGRLLSALDDLQLANSTIIAFTSDHGWALGEHGEWAKYSNFDVATHVPLIFYVPGRTASLPEAGEKLFPYLDPFDSASQLMEPGRQSMDLVELVSLFPTLAGLAGLQVPPRCPVPSFHVELCREGKNLLKHFRFRDLEEDPYLPG
Iduronate 2-sulfatase 14 kDa …: NPRELIAYSQYPRPSDIPQWNSDKPSLKDIKIMGYSIRTIDYRYTVWVGFNPDEFLANFSDIHAGELYFVDSDPLQDHNMYNDSQGGDLFQLLMP
B2: Filgrastim (protein, chains of the INN, looked up)
chain: MTPLGPASSLPQSFLLKCLEQVRKIQGDGAALQEKLCATYKLCHPEELVLLGHSLGIPWAPLSSCPSQALQLAGCLSQLHSGLFLYQGLLQALEGISPELGPTLDTLQLDVADFATTIWQQMEELGMAPALQPTQGAMPAFASAFQRRAGGVLVASHLQSFLEVSYRVLRHLAQP
modifications: N-terminal methionine
B3: Tenecteplase (protein, UniProt P00750 36-562, looked up, variant T103N N117Q K296A H297A R298A R299A)
Tissue-type plasminogen …: SYQVICRDEKTQMIYQQHQSWLRPVLRSNRVEYCWCNSGRAQCHSVPVKSCSEPRCFNGGTCQQALYFSDFVCQCPEGFAGKCCEIDTRATCYEDQGISYRGNWSTAESGAECTNWQSSALAQKPYSGRRPDAIRLGLGNHNYCRNPDRDSKPWCYVFKAGKYSSEFCSTPACSEGNSDCYFGNGSAYRGTHSLTESGASCLPWNSMILIGKVYTAQNPSAQALGLGKHNYCRNPDGDAKPWCHVLKNRRLTWEYCDVPSCSTCGLRQYSQPQFRIKGGLFADIASHPWQAAIFAAAAASPGERFLCGGILISSCWILSAAHCFQERFPPHHLTVILGRTYRVVPGEEEQKFEVEKYIVHKEFDDDTYDNDIALLQLKSDSSRCAQESSVVRTVCLPPADLQLPDWTECELSGYGKHEALSPFYSERLKEAHVRLYPSSRCTSQHLLNRTVTDNMLCAGDTRSGGPQANLHDACQGDSGGPLVCLNDGRMTLVGIISWGLGCGQKDVPGVYTKVTNYLDWIRDNMRP

Settings: in vivo

Row | Molecule | ½ Life [h]
1 | B1 | 0.733
2 | B2 | 3.5
3 | B3 | 1.9
